# Assay results taken from patent US20260028421A1 (JIANGSU HENGRUI PHARMACEUTICALS, published 2026).
# How the values were obtained:
# hIL5 = hIL5 (human, UniProt P05113 20-134); assay: ELISA
# hTSLP = hTSLP (human, UniProt Q969D9 29-159); assay: ELISA
# hGUCY2C ECD-His = molecular target: T1, hGUCY2C ECD-His (human, UniProt P25092 24-430); assay: SPR Biacore, antibody captured
# T1 construct: also called human GUCY2C protein
# Description: To test the affinity of the GUCY2C monoclonal antibodies of the present disclosure for GUCY2C, in this test example, the instruments Biacore 8K and Biacore T200 were used to detect the ability of the antibodies to bind to hGUCY2C-ECD-His (SEQ ID NO: 3). The specific method is as follows: The antibody was affinity-captured using a Protein A biosensor chip conjugated with an anti-human antibody, then a solution containing GUCY2C Protein flowed on the surface of the chip, and reaction signals were detected in real time with an instrument to obtain association and dissociation curves. After dissociation was completed for each cycle, the biosensor chip was washed with 10 mM glycine-hydrochloric acid (pH 1.5) for regeneration. Data fitting was performed using a 1:1 model.
# [1] = molecular target: T2, Human GUCY2C protein on cells (HCT116/hGUCY2C, HT-55, T84, LS1034, LS174T) (human, UniProt P25092 24-1073); assay: flow cytometry on HCT116/hGUCY2C cells, PE anti-human IgG Fc secondary antibody
# T2 construct: also called GUCY2C on the cell surface
EC50 (hIL5) [nM],EC50 (hTSLP) [nM],Kd (hGUCY2C ECD-His) [nM],koff (hGUCY2C ECD-His) [s⁻¹],kon (hGUCY2C ECD-His) [M⁻¹ s⁻¹],EC50 (read off the curve) [1] [nM],Binder
37,2.88,,,,,HJ-6 (bispecific antibody) chain 1: not shown chain 2: DIQMTQSPSSVSASVGDRVTITCRASQDIANYLSWYQQKPGKSPKLLIYGTSNLEVGVPSRFSGSRSGTDFTLTISSLQPEDFATYYCLQDKEFPRTFGGGTKVEIKGGGGSSGAPRFLTCPKASVVSVGKDATLSSQIVGNPFPQVSWEKDKQPVTAGVRFRLAQDGDLYRLKILDLQLSDSGQYVSRARNAHGEAFACLGLQVDAEA chain 3: EVQLVQSGAEVKKPGSSVKVSCKASGYTFSNYLIEWVRQAPGQGLEWIGVIDPGVGDTNYNENFKGRATLTADKSTSTAYIELSSLRSEDTAVYYCAREDNTGTAFDYWGQGTTVTVSSASTKGPSVFPLAPSSKSTSGGTAALGCLVKDYFPEPVTVSWNSGALTSGVHTFPAVLQSSGLYSLSSVVTVPSSSLGTQTYICNVNHKPSNTKVDKKVEPKSCDKTHTCPPCPAPEAAGGPSVFLFPPKPKDTLMISRTPEVTCVVVDVSHEDPEVKFNWYVDGVEVHNAKTKPREEQYNSTYRVVSVLTVLHQDWLNGKEYKCKVSNKALPAPIEKTISKAKGQPREPQVCTLPPSREEMTKNQVSLSCAVKGFYPSDIAVEWESNGQPENNYKTTPPVLDSDGSFFLVSKLTVDKSRWQQGNVFSCSVMHEALHNHYTQKSLSLSPGK chain 4: SIVMTQTPLSLSVTPGQPASISCKASQSVSSDVTWYLQKPGQSPQLLIYYVSEHYTGVPDRFSGSGYGTDFTLKISRVEAEDVGVYYCQQHHRFPLTFGQGTKLEIKRTVAAPSVFIFPPSDEQLKSGTASVVCLLNNFYPREAKVQWKVDNALQSGNSQESVTEQDSKDSTYSLSSTLTLSKADYEKHKVYACEVTHQGLSSPVTKSFNRGEC
18.7,3.33,,,,,HJ-8 (bispecific antibody) chain 1: not shown chain 2: DIQMTQSPSSVSASVGDRVTITCRASQDIANYLSWYQQKPGKSPKLLIYGTSNLEVGVPSRFSGSRSGTDFTLTISSLQPEDFATYYCLQDKEFPRTFGGGTKVEIKRTVASSGAPRFLTRPKASVVSVGKDATLSSQIVGNPFPQVSWEKDKQPVTAGVRFRLAQDGDLYRLKILDLQLSDSGQYVSRARNAHGEAFACLGLQVDAEA chain 3: EVQLVQSGAEVKKPGSSVKVSCKASGYTFSNYLIEWVRQAPGQGLEWIGVIDPGVGDTNYNENFKGRATLTADKSTSTAYIELSSLRSEDTAVYYCAREDNTGTAFDYWGQGTTVTVSSASTKGPSVFPLAPSSKSTSGGTAALGCLVKDYFPEPVTVSWNSGALTSGVHTFPAVLQSSGLYSLSSVVTVPSSSLGTQTYICNVNHKPSNTKVDKKVEPKSCDKTHTCPPCPAPEAAGGPSVFLFPPKPKDTLMISRTPEVTCVVVDVSHEDPEVKFNWYVDGVEVHNAKTKPREEQYNSTYRVVSVLTVLHQDWLNGKEYKCKVSNKALPAPIEKTISKAKGQPREPQVCTLPPSREEMTKNQVSLSCAVKGFYPSDIAVEWESNGQPENNYKTTPPVLDSDGSFFLVSKLTVDKSRWQQGNVFSCSVMHEALHNHYTQKSLSLSPGK chain 4: SIVMTQTPLSLSVTPGQPASISCKASQSVSSDVTWYLQKPGQSPQLLIYYVSEHYTGVPDRFSGSGYGTDFTLKISRVEAEDVGVYYCQQHHRFPLTFGQGTKLEIKRTVAAPSVFIFPPSDEQLKSGTASVVCLLNNFYPREAKVQWKVDNALQSGNSQESVTEQDSKDSTYSLSSTLTLSKADYEKHKVYACEVTHQGLSSPVTKSFNRGEC
10.9,3.18,,,,,HJ-9 (bispecific antibody) chain 1: not shown chain 2: DIQMTQSPSSVSASVGDRVTITCRASQDIANYLSWYQQKPGKSPKLLIYGTSNLEVGVPSRFSGSRSGTDFTLTISSLQPEDFATYYCLQDKEFPRTFGGGTKVEIKRTVASSGAPRFLTCPKASVVSVGKDATLSSQIVGNPFPQVSWEKDKQPVTAGVRFRLAQDGDLYRLKILDLQLSDSGQYVSRARNAHGEAFACLGLQVDAEA chain 3: EVQLVQSGAEVKKPGSSVKVSCKASGYTFSNYLIEWVRQAPGQGLEWIGVIDPGVGDTNYNENFKGRATLTADKSTSTAYIELSSLRSEDTAVYYCAREDNTGTAFDYWGQGTTVTVSSASTKGPSVFPLAPSSKSTSGGTAALGCLVKDYFPEPVTVSWNSGALTSGVHTFPAVLQSSGLYSLSSVVTVPSSSLGTQTYICNVNHKPSNTKVDKKVEPKSCDKTHTCPPCPAPEAAGGPSVFLFPPKPKDTLMISRTPEVTCVVVDVSHEDPEVKFNWYVDGVEVHNAKTKPREEQYNSTYRVVSVLTVLHQDWLNGKEYKCKVSNKALPAPIEKTISKAKGQPREPQVCTLPPSREEMTKNQVSLSCAVKGFYPSDIAVEWESNGQPENNYKTTPPVLDSDGSFFLVSKLTVDKSRWQQGNVFSCSVMHEALHNHYTQKSLSLSPGK chain 4: SIVMTQTPLSLSVTPGQPASISCKASQSVSSDVTWYLQKPGQSPQLLIYYVSEHYTGVPDRFSGSGYGTDFTLKISRVEAEDVGVYYCQQHHRFPLTFGQGTKLEIKRTVAAPSVFIFPPSDEQLKSGTASVVCLLNNFYPREAKVQWKVDNALQSGNSQESVTEQDSKDSTYSLSSTLTLSKADYEKHKVYACEVTHQGLSSPVTKSFNRGEC
20.8,3.17,,,,,HJ-10 (bispecific antibody) chain 1: not shown chain 2: DIQMTQSPSSVSASVGDRVTITCRASQDIANYLSWYQQKPGKSPKLLIYGTSNLEVGVPSRFSGSRSGTDFTLTISSLQPEDFATYYCLQDKEFPRTFGGGTKVEIKRTVASSGAPRFLTRPKASVVSVGKDATLSCQIVGNPFPQVSWEKDKQPVTAGVRFRLAQDGDLYRLKILDLQLSDSGQYVCRARNAHGEAFACLGLQVDAEA chain 3: EVQLVQSGAEVKKPGSSVKVSCKASGYTFSNYLIEWVRQAPGQGLEWIGVIDPGVGDTNYNENFKGRATLTADKSTSTAYIELSSLRSEDTAVYYCAREDNTGTAFDYWGQGTTVTVSSASTKGPSVFPLAPSSKSTSGGTAALGCLVKDYFPEPVTVSWNSGALTSGVHTFPAVLQSSGLYSLSSVVTVPSSSLGTQTYICNVNHKPSNTKVDKKVEPKSCDKTHTCPPCPAPEAAGGPSVFLFPPKPKDTLMISRTPEVTCVVVDVSHEDPEVKFNWYVDGVEVHNAKTKPREEQYNSTYRVVSVLTVLHQDWLNGKEYKCKVSNKALPAPIEKTISKAKGQPREPQVCTLPPSREEMTKNQVSLSCAVKGFYPSDIAVEWESNGQPENNYKTTPPVLDSDGSFFLVSKLTVDKSRWQQGNVFSCSVMHEALHNHYTQKSLSLSPGK chain 4: SIVMTQTPLSLSVTPGQPASISCKASQSVSSDVTWYLQKPGQSPQLLIYYVSEHYTGVPDRFSGSGYGTDFTLKISRVEAEDVGVYYCQQHHRFPLTFGQGTKLEIKRTVAAPSVFIFPPSDEQLKSGTASVVCLLNNFYPREAKVQWKVDNALQSGNSQESVTEQDSKDSTYSLSSTLTLSKADYEKHKVYACEVTHQGLSSPVTKSFNRGEC
17.7,2.18,,,,,HJ-7 (bispecific antibody) chain 1: not shown chain 2: DIQMTQSPSSVSASVGDRVTITCRASQDIANYLSWYQQKPGKSPKLLIYGTSNLEVGVPSRFSGSRSGTDFTLTISSLQPEDFATYYCLQDKEFPRTFGGGTKVEIKGGGGSSGAPRFLTRPKASVVSVGKDATLSCQIVGNPFPQVSWEKDKQPVTAGVRFRLAQDGDLYRLKILDLQLSDSGQYVCRARNAHGEAFACLGLQVDAEA chain 3: EVQLVQSGAEVKKPGSSVKVSCKASGYTFSNYLIEWVRQAPGQGLEWIGVIDPGVGDTNYNENFKGRATLTADKSTSTAYIELSSLRSEDTAVYYCAREDNTGTAFDYWGQGTTVTVSSASTKGPSVFPLAPSSKSTSGGTAALGCLVKDYFPEPVTVSWNSGALTSGVHTFPAVLQSSGLYSLSSVVTVPSSSLGTQTYICNVNHKPSNTKVDKKVEPKSCDKTHTCPPCPAPEAAGGPSVFLFPPKPKDTLMISRTPEVTCVVVDVSHEDPEVKFNWYVDGVEVHNAKTKPREEQYNSTYRVVSVLTVLHQDWLNGKEYKCKVSNKALPAPIEKTISKAKGQPREPQVCTLPPSREEMTKNQVSLSCAVKGFYPSDIAVEWESNGQPENNYKTTPPVLDSDGSFFLVSKLTVDKSRWQQGNVFSCSVMHEALHNHYTQKSLSLSPGK chain 4: SIVMTQTPLSLSVTPGQPASISCKASQSVSSDVTWYLQKPGQSPQLLIYYVSEHYTGVPDRFSGSGYGTDFTLKISRVEAEDVGVYYCQQHHRFPLTFGQGTKLEIKRTVAAPSVFIFPPSDEQLKSGTASVVCLLNNFYPREAKVQWKVDNALQSGNSQESVTEQDSKDSTYSLSSTLTLSKADYEKHKVYACEVTHQGLSSPVTKSFNRGEC
9.46,3,,,,,HJ-11 (bispecific antibody) chain 1: not shown chain 2: DIQMTQSPSSVSASVGDRVTITCRASQDIANYLSWYQQKPGKSPKLLIYGTSNLEVGVPSRFSGSRSGTDFTLTISSLQPEDFATYYCLQDKEFPRTFGGGTKVEIKRTVASSGCPRFLTRPKASVVSVGKDATLSCQIVGNPFPQVSWEKDKQPVTAGVRFRLAQDGDLYRLKILDLQLSDSGQYVCRARNAHGEAFACLGLQVDAEA chain 3: EVQLVQSGAEVKKPGSSVKVSCKASGYTFSNYLIEWVRQAPGQGLEWIGVIDPGVGDTNYNENFKGRATLTADKSTSTAYIELSSLRSEDTAVYYCAREDNTGTAFDYWGQGTTVTVSSASTKGPSVFPLAPSSKSTSGGTAALGCLVKDYFPEPVTVSWNSGALTSGVHTFPAVLQSSGLYSLSSVVTVPSSSLGTQTYICNVNHKPSNTKVDKKVEPKSCDKTHTCPPCPAPEAAGGPSVFLFPPKPKDTLMISRTPEVTCVVVDVSHEDPEVKFNWYVDGVEVHNAKTKPREEQYNSTYRVVSVLTVLHQDWLNGKEYKCKVSNKALPAPIEKTISKAKGQPREPQVCTLPPSREEMTKNQVSLSCAVKGFYPSDIAVEWESNGQPENNYKTTPPVLDSDGSFFLVSKLTVDKSRWQQGNVFSCSVMHEALHNHYTQKSLSLSPGK chain 4: SIVMTQTPLSLSVTPGQPASISCKASQSVSSDVTWYLQKPGQSPQLLIYYVSEHYTGVPDRFSGSGYGTDFTLKISRVEAEDVGVYYCQQHHRFPLTFGQGTKLEIKRTVAAPSVFIFPPSDEQLKSGTASVVCLLNNFYPREAKVQWKVDNALQSGNSQESVTEQDSKDSTYSLSSTLTLSKADYEKHKVYACEVTHQGLSSPVTKSFNRGEC
,,0.92,0.00018,195000,~0.7,"P1-D2 CHI (antibody, human IgG1, kappa, V domains shown, chimeric) VH: EFQLQQSGPELVKPGASVKISCKASGYSFTDHNMNWVKQSNGKSLEWIGVINPKYGTISNNQKFKGKATLTVDQSSSTAYMQLNSLTAEDSAVYYCARDDYPNYFDYWGQGTTLTVSS VL: QIVLTQSPAIMSASPGEKVTISCSANSSVNYIYWYQQKPGSSPKPWIYRTSNLASGVPARFSGSGSGTSYSLTISSMEAEDAATYYCQQYHSFPPTFGGGTKLEIKR"
